According to US7041288:

Experiments:
[1] = biological target: human IgE (SUS-11 IgE) (human) (UniProt P01854); assay: SPR (BIAcore), IgE amine-coupled to CM5 chip, monophasic model
[2] = biological target: human IgE (SUS-11 IgE) (human) (UniProt P01854); assay: competition ELISA: SUS-11 IgE (1 µg/ml) pre-incubated with the antibody, captured on anti-IgE Le27; blocked ligand is HRP-labeled FcεRIα-HSA-FcεRIα (DFP); binding without competitor = 100 %

Chain of UniProt P01854 (P01854 other isoform, or with tags, fused parts or gaps): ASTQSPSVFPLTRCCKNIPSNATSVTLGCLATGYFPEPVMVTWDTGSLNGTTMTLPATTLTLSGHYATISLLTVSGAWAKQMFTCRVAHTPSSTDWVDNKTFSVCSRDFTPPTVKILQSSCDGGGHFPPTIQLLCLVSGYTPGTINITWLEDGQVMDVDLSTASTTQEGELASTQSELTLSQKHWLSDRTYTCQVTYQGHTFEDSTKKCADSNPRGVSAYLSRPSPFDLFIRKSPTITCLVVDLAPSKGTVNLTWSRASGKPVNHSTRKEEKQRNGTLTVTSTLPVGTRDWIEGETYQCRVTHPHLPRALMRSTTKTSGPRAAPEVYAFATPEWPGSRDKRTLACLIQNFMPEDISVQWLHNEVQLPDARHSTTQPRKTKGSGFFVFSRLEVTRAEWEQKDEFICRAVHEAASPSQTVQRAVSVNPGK

Kd [1]: 0.53 nM
koff [1]: 4.2e-06 s⁻¹
kon [1]: 8000 M⁻¹ s⁻¹
IC50 (read off the curve) [2]: 0.4 µg/mL
Substance: BSW17, mouse monoclonal anti-human IgE antibody (hybridoma ECACC 96121916)
